This experiment concerns the target MLL PHD3 finger (residues 1565-1627), GST cleaved (human) (UniProt Q03164). As to the kind of experiment: other fluorescence titration.

Experimental findings from PMC2886590 are described below.

As a reminder, the Kd is the free concentration of one partner at which half of the binding sites on the other are occupied at equilibrium, for simple one-to-one binding. A higher Kd goes with lower affinity.

MLL PHD3 finger (residues 1565-1627), GST cleaved (human), sequence (Q03164 1565-1627): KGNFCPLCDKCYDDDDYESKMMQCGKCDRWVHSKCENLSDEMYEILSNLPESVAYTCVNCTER

In turn, “H3K4me3 peptide (12-mer histone tail peptide)” showed a Kd of 19 µM.
